Source: publication doi:10.1101/2020.12.31.424868 (bioRxiv, 2020)

Columns and labels:
[1] = target: HA from A/New York/107/2003 (Influenza A virus A/New York/107/2003 …, UniProt B2LVD7, strain); assay: ELISA
IN/05 HA = IN/05 HA (Influenza A virus A/Indonesia/5/2005 …, UniProt C5MRF2, strain); assay: ELISA
[2] = target: head domain of VN/04 HA (A/Vietnam/1203/2004 H5N1), monomeric (Influenza A virus A/Vietnam/1203/2004 …, strain); assay: HDX-MS
[3] = target: trimeric recombinant HA from H1 A/California/04/2009 (Influenza A virus A/California/04/2009 …, UniProt C3W5S1); assay: BLI
[4] = target: monomeric HA head domain from H1 A/California/07/2009 (influenza A virus A/California/07/2009 …, UniProt C3W5X2); assay: BLI

Row | Binder | binding result [1] | binding result (IN/05 HA) | other results
1 | FluA-20 (antibody, V domains shown) VH: QVQLEESGPGLVKPSETLSLTCSVSGVSVTSDIYYWTWIRQPPGKGLEWIGYIFYNGDTNYNPSLKSRVTMSIDTSKNEFSLRLTSVTAADTAVYFCARGTEDLGYCSSGSCPNHWGQGTLVTVSS VL: DIVMTQSPSSLSASIGDRVTITCRPSQNIRSFLNWFQHKPGKAPKLLIYAASNLQSGVPSRFSGSGSGTEFTLTIRSLQPEDFATYYCQQSYNTPPTFGQGTKVEIK | no binding | – | –
2 | mAb H5.28, hybridoma-generated IgG (antibody, V domains shown) VH: EVQLVESGGGLVQPGGSLRLSCAASGFTFSTYWMTWVRQAPGKGLEWVANINQDGGEKYFVDSVKGRFTISRDNAKNSLFLQMNTLRAEDTAVYYCARGFLERLLLGRQGAYYYGMDVWGQGTTVTVSS VL: DIQMTQSPSSLSASVGDRVSMTCRASQIISSSLNWYQQKPGKAPKLLIYAASNLQSGVPSRFSGSGSGTDFTLTISSLQPEDFATYYCQQSYSTPPELTFGGGTKVEIK | – | binds | –
3 | mAb H5.31, hybridoma-generated IgG (antibody, V domains shown) VH: EVQLVQSGGGLVQPGGSLRLSCEASRFTSSSYWITWVRQAPGKGLEWVANIKQDGSEKYFVDSVKGRFTISRDNASNSLYLQMSSLRAEDTAVYYCARGFLERLLLGRQGAYYYGMDVWGQGTTVTVSS VL: DIVMTQSPFSLSASVGDRVTMTCRASQSISSSLNWYQQKPGKAPKLLIYAASNLQSGVPSRFSGSGSGTDFTLTISSLQPEDFATYYCQQSYTMPPELTFGGGTKVEIK | – | binds | –
4 | H5.28 Fab (recombinant) (Fab, V domains shown) VH: EVQLVESGGGLVQPGGSLRLSCAASGFTFSTYWMTWVRQAPGKGLEWVANINQDGGEKYFVDSVKGRFTISRDNAKNSLFLQMNTLRAEDTAVYYCARGFLERLLLGRQGAYYYGMDVWGQGTTVTVSS VL: DIQMTQSPSSLSASVGDRVSMTCRASQIISSSLNWYQQKPGKAPKLLIYAASNLQSGVPSRFSGSGSGTDFTLTISSLQPEDFATYYCQQSYSTPPELTFGGGTKVEIK | – | – | binding result [2]: binds
5 | mAb 5J8 (antibody, V domains shown) VH: EVQLVESGPGLVKPSDILSLTCAVSGYSISSNYYWGWIRQPPGKGLEWIGSIYHSGSTYYKPSLESRLGISVDTSKNQFSLKLSFVSAADTAVYYCARHVRSGYPDTAYYFDKWGQGTLVTVSS VL: SYVLTQPPSVSVAPGETARISCGGNNIGTKVLHWYQQTPGQAPVLVVYDDSDRPSGIPERFSGSNSGNTATLTISRVEVGDEADYYCQVWDISTDQAVFGGGTKLTVL | – | – | binding result [3]: binds; binding result [4]: binds
6 | FluA-151 (antibody, V domains shown) VH: QELLVESGGGVVQPGRSLRLSCVGSGFTFRTYGMHWVRQAPGRRPEWVALISNDGSREYYADSVKGRFTISRDNSRNTLYLQMNSLTVADTAVYYCAKFIPDPNYGEFYFHHWGQGTLVTVSS VL: DIQMTQSPSSLSASVEDRVTITCRASQSINKYLNWYQQKPGKAPKLLIYAADNLQDAVPSRFSGSGSGTDFTLTITGLHPDDLATYYCQQSYTIPPTFGHGTKVEIK | no binding | – | –
